Measurements taken from US11124550B2, “Proteinaceous molecules and methods of use” (priority 2015, dated 2021).
Positions of bridges follow the written chain, without caps; N, C: chain ends. Residues, ends and D or L forms follow the SMILES beside them.

How the values were obtained:
TG or DRG neurons = assay: Calcium imaging of cultured somatosensory neurons (Fura-2); type: cell-based, rat
[1] = after 72 hours, 37° C., 1 μM
hNav1.1 [2] = target: T1, hNav1.1 (Homo sapiens, UniProt P35498); assay: Automated whole-cell patch clamp (QPatch 16X), sustained currents in HEK293 cells; type: cell-based; conditions: for fast inactivation and sustained current at end of depolarising pulse, hNav1.1: 300 nM; for EC50: HEK293 cells stably expressing hNav1.1, n=3, read-out: EC50 for evoking sustained currents at hNav1.1
T1 construct: expressed in transfected cells; host or cells: HEK293T
Procedure: The activity of recombinant Hm1b was assessed at hNav1.1-1.7. Sodium currents were measured from hNav channels stably expressed in HEK293 cells using an automated whole-cell patch-clamp electrophysiology system (QPatch 16X; Sophion, Ballerup, Denmark). The extracellular solution comprised 2 mM CaCl2), 1 mM MgCl2, 10 mM HEPES, 4 mM KCl, 145 mM NaCl, 10 mM D-glucose at pH 7.3, and 305 mOsm. The intracellular solution comprised 140 mM CsF, 1 mM/5 mM EGTA/CsOH, 10 mM HEPES, 10 mM NaCl at pH 7.3, osmolality 320 mOsm. The elicited currents were sampled at 25 kHz and filtered at 5 kHz. Cells were maintained at a holding potential of −80 mV and sodium currents were elicited by 210 ms voltage steps at 0 mV after a 50 ms conditioning step from −120 mV. For dose-response experiments, cells were incubated for 5 min with increasing concentrations of Hm1b. Peptide stock solutions were made up to 10 μM and serial dilutions were prepared in extracellular solution containing 0.1% BSA. Graphs and fittings were performed using Prism 7.0 (GraphPad Software, San Diego, Calif.). Numerical data are presented as mean SEM based on at least three experiments (n≥3).
The point mutation (Lys to Ser at position 11) was introduced into the pLIC-MBP-Hm1b expression plasmid (produced according to the methods of Example 7) by polymerase chain reaction (PCR) using mutagenic primers and standard protocols with Platinum Pfx DNA Polymerase (Invitrogen). Mutagenic primers were designed using the online tool PrimerX and synthesised by Integrated DNA Technologies, Inc. (Emu Heights, NSW). DNA from the mutant construct was isolated and sequenced to verify the desired mutation (AGRF, Brisbane, Australia). Plasmid DNA was isolated using ISOLATE II plasmid Mini Kit (Bioline, London, UK) for transformation into E. coli BL21 cells for recombinant peptide production. […].

in vitro = conditions: human, cerebrospinal or other body fluid
hNav1.1 [3] = target: T1, hNav1.1; assay: Automated planar whole-cell patch clamp (Patchliner), hSCN1A HEK293T cells; type: cell-based
Text: (§1) To characterize the functional activity of Hm1a and Hm1b, HEK293T cells stably transfected with either hSCN1A, hSCN2A, hSCN3A, hSCN5A, hSCN9A or hSCN10A as well as CHO cells stably transfected with hSCN4A or hSCN8A were used for whole-cell patch-clamp analysis with a high throughput automated planar patch-clamp technology.
(§2) HEK293T cells stably transfected with either hSCN1A, hSCN2A, hSCN3A, hSCN5A, hSCN9A or hSCN10A were maintained in Dulbecco's Modified Eagle's Medium Nutrient Mixture F-12 (Invitrogen, Carlsbad, Calif., USA) supplemented with 10% (v/v) foetal bovine serum (FBS) (Invitrogen), 0.9% Penicillin/Streptomycin (P/S) solution and 100 μg/mL hygromycin or 100 μg/mL neomycin. CHO cells stably transfected with hSCN4A or hSCN8A were maintained in Ham's F12 Nutrient Mixture (Invitrogen, Carlsbad, Calif., USA) supplemented with 10% (v/v) FBS, 0.9% P/S solution and 100 μg/mL hygromycin. All cells were grown in T75 flasks (BD Biosciences, San Jose, Calif., USA) to ˜70% confluency.
Patch-clamp recordings were conducted in the whole-cell configuration using a Patchliner® (Nanion Technologies, Munich, Germany). Before recordings, cells were detached from culture flasks with Accutase Cell Detachment Solution (Innovative Cell Technologies Inc., San Diego, Calif., USA) and resuspended at a density of 1×10^6 to 5×10^7 per milliliter in 50% serum free media and 50% external recording solution v/v. The external recording solution comprised: 140 mM NaCl, 4 mM KCl, 1 mM MgCl2, 2 mM CaCl2), 5 mM D-glucose, 10 mM HEPES (pH adjusted to 7.4 with NaOH). The osmolarity of this solution was 298 mOsm. The internal recording solution comprised: 50 mM CsCl, 10 mM NaCl, 60 mM CsF, 2 mM MgCl2, 20 mM EGTA, 10 mM HEPES (pH adjusted to 7.2 with CsOH) and the osmolarity of this solution was 285 mOsm. […]
(§3) The voltage dependence of activation was studied by measuring the normalised peak currents during 100 ms depolarisations from −120 mV to +30 mV in 5 mV increments. The resulting current-voltage curve was fit to the equation I=[I+exp(−0.03937.z.(V−V1/2)]/g.(V−Vr), where I is current amplitude; z is apparent gating charge; V is test potential; V1/2 is half maximal voltage; g is a factor related to the maximum number of open channels; and Vr is reversal potential. Conductance was determined using G=I/(V−Vr), where G is conductance. The conductance values were then fit with the Boltzmann equation G=1/(1+exp[(V−V1/2)/a]), where a is the slope of the half-maximum, V is the potential of the given pulse and V1/2 is the potential for the half-maximal activation. To study steady-state fast inactivation, cells were held at conditioning pre-pulse potentials ranging from −120 mV to +30 mV in 5 mV increments from a holding potential of −120 mV and a test pulse at 0 mV for 20 ms. […]

hNav1.2 = target: T2, hNav1.2 (Homo sapiens, UniProt Q99250); assay: Automated planar whole-cell patch clamp (Patchliner), hSCN2A HEK293T cells; type: cell-based
T2 construct: expressed in transfected cells; host or cells: HEK293T
Text: as §1, §2
(§4) Patch-clamp recordings were conducted in the whole-cell configuration using a Patchliner® (Nanion Technologies, Munich, Germany). […]
as §3

hNav1.3 = target: T3, hNav1.3 (Homo sapiens, UniProt Q9NY46); assay: Automated planar whole-cell patch clamp (Patchliner), hSCN3A HEK293T cells; type: cell-based
T3 construct: expressed in transfected cells; host or cells: HEK293T
Text: as §1, §2, §4, §3

hNav1.6 = target: T4, hNav1.6 (Homo sapiens, UniProt Q9UQD0); assay: Automated planar whole-cell patch clamp (Patchliner), hSCN8A CHO cells; type: cell-based
T4 construct: expressed in transfected cells; host or cells: CHO
Text: as §1, §2, §4, §3

[4] = 5 nM and 50 nM, potentials more positive than −15 mV

T3 sequence (Q9NY46 whole entry): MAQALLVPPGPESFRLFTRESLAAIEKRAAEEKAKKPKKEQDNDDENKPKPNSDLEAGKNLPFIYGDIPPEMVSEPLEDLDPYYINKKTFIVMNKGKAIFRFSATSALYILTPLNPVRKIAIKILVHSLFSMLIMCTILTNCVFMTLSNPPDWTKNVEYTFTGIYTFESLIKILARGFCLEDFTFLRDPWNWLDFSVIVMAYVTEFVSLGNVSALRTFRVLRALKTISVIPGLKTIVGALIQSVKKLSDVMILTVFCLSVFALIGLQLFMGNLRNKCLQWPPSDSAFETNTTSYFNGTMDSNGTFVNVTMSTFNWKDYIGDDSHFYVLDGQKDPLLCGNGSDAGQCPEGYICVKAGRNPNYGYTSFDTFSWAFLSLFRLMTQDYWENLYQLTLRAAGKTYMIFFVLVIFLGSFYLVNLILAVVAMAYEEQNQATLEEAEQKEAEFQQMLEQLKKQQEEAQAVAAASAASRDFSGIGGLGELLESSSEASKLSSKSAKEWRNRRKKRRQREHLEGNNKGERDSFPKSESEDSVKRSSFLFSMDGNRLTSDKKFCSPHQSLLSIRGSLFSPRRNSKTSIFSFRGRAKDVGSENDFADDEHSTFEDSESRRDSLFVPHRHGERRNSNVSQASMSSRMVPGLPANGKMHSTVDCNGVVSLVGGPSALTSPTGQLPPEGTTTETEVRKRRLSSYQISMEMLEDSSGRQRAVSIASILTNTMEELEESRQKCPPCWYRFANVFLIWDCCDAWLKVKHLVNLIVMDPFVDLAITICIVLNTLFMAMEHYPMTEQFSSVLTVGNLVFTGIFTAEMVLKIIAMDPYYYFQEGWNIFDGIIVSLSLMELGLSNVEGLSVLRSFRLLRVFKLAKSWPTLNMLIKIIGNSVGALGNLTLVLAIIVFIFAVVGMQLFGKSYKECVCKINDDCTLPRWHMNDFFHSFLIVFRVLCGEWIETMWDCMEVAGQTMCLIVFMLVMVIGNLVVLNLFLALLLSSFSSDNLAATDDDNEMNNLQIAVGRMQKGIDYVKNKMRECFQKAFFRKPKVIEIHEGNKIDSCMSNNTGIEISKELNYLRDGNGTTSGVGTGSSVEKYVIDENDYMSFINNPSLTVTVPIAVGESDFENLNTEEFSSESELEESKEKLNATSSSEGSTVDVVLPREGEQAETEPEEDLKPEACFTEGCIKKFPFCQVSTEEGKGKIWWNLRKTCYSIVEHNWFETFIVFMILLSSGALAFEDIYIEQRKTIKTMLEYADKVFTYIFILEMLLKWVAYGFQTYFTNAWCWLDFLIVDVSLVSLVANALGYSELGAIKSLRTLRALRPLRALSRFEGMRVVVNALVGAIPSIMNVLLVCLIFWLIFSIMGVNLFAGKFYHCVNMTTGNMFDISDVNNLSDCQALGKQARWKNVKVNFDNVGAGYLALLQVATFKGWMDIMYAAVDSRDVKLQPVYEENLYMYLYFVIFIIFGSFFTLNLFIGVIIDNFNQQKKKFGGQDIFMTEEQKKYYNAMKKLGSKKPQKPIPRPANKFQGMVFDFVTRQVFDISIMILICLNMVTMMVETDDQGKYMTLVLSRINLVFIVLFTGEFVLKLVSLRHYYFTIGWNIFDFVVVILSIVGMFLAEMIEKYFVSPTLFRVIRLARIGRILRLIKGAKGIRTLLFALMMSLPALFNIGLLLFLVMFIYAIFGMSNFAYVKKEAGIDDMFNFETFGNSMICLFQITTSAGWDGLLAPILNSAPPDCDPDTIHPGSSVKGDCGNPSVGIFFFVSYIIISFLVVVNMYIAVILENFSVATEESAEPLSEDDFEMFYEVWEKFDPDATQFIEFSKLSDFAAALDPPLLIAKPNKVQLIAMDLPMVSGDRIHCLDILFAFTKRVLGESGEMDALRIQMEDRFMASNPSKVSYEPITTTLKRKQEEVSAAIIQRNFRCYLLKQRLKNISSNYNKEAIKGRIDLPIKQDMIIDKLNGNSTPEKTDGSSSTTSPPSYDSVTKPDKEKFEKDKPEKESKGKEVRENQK
T4 sequence (Q9UQD0 whole entry): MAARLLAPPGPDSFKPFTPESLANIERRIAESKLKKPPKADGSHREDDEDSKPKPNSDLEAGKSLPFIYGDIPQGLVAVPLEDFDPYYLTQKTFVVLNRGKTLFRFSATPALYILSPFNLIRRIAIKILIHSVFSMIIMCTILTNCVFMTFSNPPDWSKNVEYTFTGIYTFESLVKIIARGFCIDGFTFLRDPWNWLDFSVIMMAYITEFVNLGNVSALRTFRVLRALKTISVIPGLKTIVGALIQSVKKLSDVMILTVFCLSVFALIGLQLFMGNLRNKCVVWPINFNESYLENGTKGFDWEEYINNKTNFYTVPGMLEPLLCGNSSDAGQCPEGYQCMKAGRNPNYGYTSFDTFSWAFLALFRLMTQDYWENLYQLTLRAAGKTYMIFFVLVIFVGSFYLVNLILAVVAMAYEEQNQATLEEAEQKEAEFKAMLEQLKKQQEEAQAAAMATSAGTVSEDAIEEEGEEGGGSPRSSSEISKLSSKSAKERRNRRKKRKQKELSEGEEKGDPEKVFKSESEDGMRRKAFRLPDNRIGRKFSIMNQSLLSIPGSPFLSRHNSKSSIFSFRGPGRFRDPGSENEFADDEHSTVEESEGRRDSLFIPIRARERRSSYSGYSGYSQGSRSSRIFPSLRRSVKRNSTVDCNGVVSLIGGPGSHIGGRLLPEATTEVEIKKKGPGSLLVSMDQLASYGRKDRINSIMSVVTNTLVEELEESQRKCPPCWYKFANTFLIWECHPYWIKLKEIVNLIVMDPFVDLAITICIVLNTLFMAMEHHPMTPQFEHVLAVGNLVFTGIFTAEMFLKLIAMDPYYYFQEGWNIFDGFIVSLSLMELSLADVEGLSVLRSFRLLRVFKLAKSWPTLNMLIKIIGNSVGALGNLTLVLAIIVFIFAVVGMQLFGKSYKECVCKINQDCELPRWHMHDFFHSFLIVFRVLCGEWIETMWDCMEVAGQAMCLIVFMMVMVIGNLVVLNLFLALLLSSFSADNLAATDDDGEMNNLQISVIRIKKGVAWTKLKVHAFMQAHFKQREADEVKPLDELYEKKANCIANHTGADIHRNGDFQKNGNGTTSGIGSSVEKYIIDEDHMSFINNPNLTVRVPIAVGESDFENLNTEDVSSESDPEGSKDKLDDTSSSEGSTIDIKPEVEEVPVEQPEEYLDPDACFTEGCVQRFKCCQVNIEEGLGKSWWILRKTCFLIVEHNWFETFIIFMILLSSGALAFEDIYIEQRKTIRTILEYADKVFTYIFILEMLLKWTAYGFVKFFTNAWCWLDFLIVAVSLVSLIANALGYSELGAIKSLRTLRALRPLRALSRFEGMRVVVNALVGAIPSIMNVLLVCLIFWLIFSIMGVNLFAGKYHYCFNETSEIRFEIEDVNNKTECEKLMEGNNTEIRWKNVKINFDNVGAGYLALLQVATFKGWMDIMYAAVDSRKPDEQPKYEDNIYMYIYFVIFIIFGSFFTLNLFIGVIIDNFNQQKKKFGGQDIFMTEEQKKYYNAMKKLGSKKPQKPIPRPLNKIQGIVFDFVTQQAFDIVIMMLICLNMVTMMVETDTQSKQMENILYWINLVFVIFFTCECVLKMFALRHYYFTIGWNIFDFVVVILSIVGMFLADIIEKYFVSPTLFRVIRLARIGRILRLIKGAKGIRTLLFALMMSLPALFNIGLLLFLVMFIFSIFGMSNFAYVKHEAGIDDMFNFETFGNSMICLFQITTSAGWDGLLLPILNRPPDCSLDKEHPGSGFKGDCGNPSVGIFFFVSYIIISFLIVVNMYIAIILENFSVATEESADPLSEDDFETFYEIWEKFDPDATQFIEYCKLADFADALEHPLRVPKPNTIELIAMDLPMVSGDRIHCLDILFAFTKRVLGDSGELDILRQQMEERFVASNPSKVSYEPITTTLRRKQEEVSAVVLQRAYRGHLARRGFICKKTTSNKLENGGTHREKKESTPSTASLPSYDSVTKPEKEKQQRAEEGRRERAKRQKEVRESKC

O=C(Nc1ccc(S(=O)(=O)Nc2nccs2)cc1)C(c1ccccc1)c1ccccc1 [ICA-121431]
calcium responses induced by Hm1a (TG or DRG neurons; ICA-121431 500 nM): greatly diminish | responses to SGTx1 (TG or DRG neurons; in presence of ICA-121431): did not attenuate

NC1=N[C@H](O)[C@H]2[C@H]3O[C@]4(O)O[C@@H]([C@@H](O)[C@@]2(N1)[C@@H]4O)[C@]3(O)CO [TTX, Tetrodotoxin]
Hm1a-evoked calcium responses (TG or DRG neurons): blocked

CC[C@H](C)[C@@H]1NC(=O)[C@H](CCCNC(=N)N)NC(=O)[C@H](CC(=O)O)NC(=O)[C@H](CCSC)NC(=O)[C@H](CCCNC(=N)N)NC(=O)CNC(=O)CNC(=O)[C@H](Cc2ccccc2)NC(=O)[C@@H](NC(=O)[C@H](CO)NC(=O)[C@H](CO)NC(=O)[C@H](CCCNC(=N)N)NC(=O)[C@H](CCCNC(=N)N)NC(=O)[C@H](CC(C)C)NC(=O)[C@@H](N)CO)CSSC[C@@H](C(=O)N[C@@H](CC(N)=O)C(=O)N[C@@H](CO)C(=O)N[C@@H](Cc2ccccc2)C(=O)N[C@@H](CCCNC(=N)N)C(=O)N[C@@H](Cc2ccc(O)cc2)C(=O)O)NC(=O)CNC(=O)[C@H](CC(C)C)NC(=O)CNC(=O)[C@H](CO)NC(=O)[C@H](CCC(N)=O)NC(=O)[C@H](C)NC(=O)CNC1=O [hANP]
peptide remaining in human CSF [1]: no detectable

CC(C)C[C@@H]1NC(=O)[C@H](Cc2c[nH]cn2)NC(=O)[C@H](CCCCN)NC(=O)[C@@H]2CSSC[C@H](NC(=O)[C@H](CCC(=O)O)NC(=O)[C@@H](N)CO)C(=O)N[C@@H](CCCNC(=N)N)C(=O)N[C@@H](Cc3ccc(O)cc3)C(=O)N[C@@H](CC(C)C)C(=O)N[C@@H](Cc3ccccc3)C(=O)NCC(=O)NCC(=O)N[C@H]3CSSC[C@H](NC(=O)CNC1=O)C(=O)N[C@@H](CCCNC(=N)N)C(=O)N[C@@H]([C@@H](C)O)C(=O)N[C@@H](CC(=O)O)C(=O)N[C@@H](CC(C)C)C(=O)N[C@@H](Cc1ccc(O)cc1)C(=O)N[C@@H](Cc1ccc(O)cc1)C(=O)N[C@H](C(=O)N[C@@H](C)C(=O)N[C@@H](Cc1c[nH]c4ccccc14)C(=O)N[C@@H](CC(=O)O)C(=O)NCC(=O)N[C@H](C(=O)N[C@@H](Cc1ccccc1)C(=O)O)[C@@H](C)O)CSSC[C@H](NC(=O)[C@H](CC(=O)O)NC(=O)[C@H](C)NC(=O)[C@H]([C@@H](C)O)NC(=O)[C@H]([C@@H](C)O)NC(=O)[C@H](CO)NC3=O)C(=O)N2 [recombinant Hm1b[K11S]] (H-SECRYLFGGCSTTADCCKHLGCRTDLYYCAWDGTF-OH; disulfide 3-17, 10-22, 16-29)
fast inactivation and sustained current at end of depolarising pulse, hNav1.1 (hNav1.1 [2]): delayed fast inactivation | EC50 (hNav1.1 [2]): 39.5 nM

CC(C)C[C@@H]1NC(=O)[C@H](Cc2c[nH]cn2)NC(=O)[C@H](CCCCN)NC(=O)[C@@H]2CSSC[C@H](NC(=O)[C@H](CCC(=O)O)NC(=O)[C@@H](N)CO)C(=O)N[C@@H](CCCNC(=N)N)C(=O)N[C@@H](Cc3ccc(O)cc3)C(=O)N[C@@H](CC(C)C)C(=O)N[C@@H](Cc3ccccc3)C(=O)NCC(=O)NCC(=O)N[C@H]3CSSC[C@H](NC(=O)CNC1=O)C(=O)N[C@@H](CCCNC(=N)N)C(=O)N[C@@H]([C@@H](C)O)C(=O)N[C@@H](CC(=O)O)C(=O)N[C@@H](CC(C)C)C(=O)N[C@@H](Cc1ccc(O)cc1)C(=O)N[C@@H](Cc1ccc(O)cc1)C(=O)N[C@H](C(=O)N[C@@H](C)C(=O)N[C@@H](Cc1c[nH]c4ccccc14)C(=O)N[C@@H](CC(=O)O)C(=O)NCC(=O)N[C@H](C(=O)N[C@@H](Cc1ccccc1)C(=O)O)[C@@H](C)O)CSSC[C@H](NC(=O)[C@H](CC(=O)O)NC(=O)[C@H](C)NC(=O)[C@H]([C@@H](C)O)NC(=O)[C@H]([C@@H](C)O)NC(=O)[C@H](CCCCN)NC3=O)C(=O)N2 [recombinant Hm1b]
fast inactivation and sustained current at end of depolarising pulse, hNav1.1 (hNav1.1 [2]): delayed fast inactivation and induced a sustained current | EC50 (hNav1.1 [2]): 18.5 nM | selectivity for hNav1.1 over hNav1.2, hNav1.4, hNav1.5, hNav1.6 and hNav1.7 (hNav1.1 [2]; sustained currents at 300 nM): very high level of selectivity

CSCC[C@@H]1NC(=O)[C@H](CC(C)C)NC(=O)[C@H](CCCNC(=N)N)NC(=O)[C@H](CO)NC(=O)[C@@H]2CSSC[C@@H]3NC(=O)[C@H](CO)NC(=O)CNC(=O)[C@H]([C@@H](C)O)NC(=O)[C@H](CSSC[C@H](N)C(=O)N[C@@H](CCCCN)C(=O)NCC(=O)N[C@@H](CCCCN)C(=O)NCC(=O)N[C@@H](C)C(=O)N[C@@H](CCCCN)C(=O)N2)NC(=O)[C@H](CSSC[C@@H](C(N)=O)NC(=O)[C@H](CCCCN)NC(=O)CNC(=O)[C@H](CO)NC(=O)[C@H](CCCNC(=N)N)NC3=O)NC(=O)[C@H](CC(=O)O)NC(=O)[C@H](Cc2ccc(O)cc2)NC1=O [ω-conotoxin MVIIA]
remaining at 72 h (in vitro): ~10%

ECRYLFGGCKTTADCCKHLGCRTDLYYCAWDGTF-NH2 [Hm1b]
voltage-dependence of fast inactivation of hNav1.1 (hNav1.1 [3]): does not appear to alter | voltage-dependence of steady-state activation of hNav1.1 (hNav1.1 [3]): slight hyperpolarizing shift | time constants of fast inactivation of hNav1.1 (hNav1.1 [3]; [4]): increases | hNav1.1 channel inactivation (hNav1.1 [3]; 1, 5 or 50 nM): potently inhibits | voltage-dependence of fast inactivation of hNav1.2 (hNav1.2): does not appear to alter | hNav1.2 channel inactivation (hNav1.2; 1 nM, 5 nM or 50 nM): did not have a significant effect | time constants of fast inactivation of hNav1.2 (hNav1.2; 50 nM, potentials more positive than −10 mV): increases | voltage-dependence of fast inactivation of hNav1.3 (hNav1.3): does not appear to alter | hNav1.3 channel inactivation (hNav1.3; 5 nM and 50 nM): slight inhibitory effect | time constants of fast inactivation of hNav1.3 (hNav1.3; [4]): increased | time constants of fast inactivation of hNav1.6 (hNav1.6): did not have an effect | voltage-dependence of fast inactivation of hNav1.6 (hNav1.6): does not appear to alter | hNav1.6 channel inactivation (hNav1.6; 5 nM and 50 nM, slight inhibitory effect, compared with hNav1.3): to a lesser extent
